This is an account of results in US20200338203A1 (Bicycle, published 2020).

B1: Compound 121 (peptide)
peptide: [Sar][Sar]ACP[1Nal]GPFWCP[Tle]NRPGC
modifications: linker 4-11-18 via TBMB
B2: Compound 284 (peptide)
peptide: Ac-[Sar][Sar]A[dD]DVTCP[1Nal]G[Aib]FWCP[Tle]N[hArg]PGC
modifications: linker 8-15-22 via TBMB
B3: Compound 122 (peptide)
peptide: [Sar][Sar]ACP[1Nal]GPFWCPVN[hArg]PGC
modifications: linker 4-11-18 via TBMB
B4: Compound 126 (peptide)
peptide: [Sar][Sar]ACP[1Nal]G[Aib]FWCP[Tle]NRPGC
modifications: linker 4-11-18 via TBMB
B5: Compound 125 (peptide)
peptide: [Sar][Sar]AC[Aib][1Nal]GPFWCPVNRP[dA]C
modifications: linker 4-11-18 via TBMB
B6: Compound 127 (peptide)
peptide: [Sar][Sar]ACP[1Nal]G[Aib]FWCPV[dA]RPGC
modifications: linker 4-11-18 via TBMB
B7: Compound 272 (peptide)
peptide: [βAla][Sar][Sar][Sar][Sar][Sar][Sar][Sar][Sar][Sar][Sar]H[dD]VPCPWGP[hArg]WCP[Tle]N[hArg]P[dD]C
modifications: linker 16-23-30 via TBMB
B8: Compound 283 (peptide)
peptide: Ac-[Sar][Sar]A[dD]DVTCP[1Nal]GPF[1Nal]CPVNRPGC
modifications: linker 8-15-22 via TBMB
B9: Compound 123 (peptide)
peptide: [Sar][Sar]ACPWG[Aib]F[1Nal]CPVNRPGC
modifications: linker 4-11-18 via TBMB
B10: Compound 116 (peptide)
peptide: [Sar][Sar]ACP[1Nal]GPFWCPVNRP[dA]C
modifications: linker 4-11-18 via TBMB
B11: Compound 113 (peptide)
peptide: [Sar][Sar]AC[Aib][1Nal]GPFWCPVNRPGC
modifications: linker 4-11-18 via TBMB
B12: Compound 128 (peptide)
peptide: [Sar][Sar]ACP[1Nal]G[Aib]FWCPVNRP[dA]C
modifications: linker 4-11-18 via TBMB
B13: Compound 83 (peptide)
peptide: [Sar][Sar]ACPWGPAWCPVNRPGC
modifications: linker 4-11-18 via TBMB
B14: Compound 104 (peptide)
peptide: [Sar][Sar]ACPWGPFWCPVNRAGC
modifications: linker 4-11-18 via TBMB
B15: Compound 101 (peptide)
peptide: ACPWGPFWCPVARPGC
modifications: printed: Sar2-ACPWGPFWCPVARPGC; TBMB on the 3 Cys
B16: Compound 111 (peptide)
peptide: [Sar][Sar]ACPWGPFWCPVNRPAC
modifications: linker 4-11-18 via TBMB
B17: Compound 117 (peptide)
peptide: [Sar][Sar]ACPWGPF[1Nal]CPV[dA]RPGC
modifications: linker 4-11-18 via TBMB
B18: Compound 282 (peptide)
peptide: Ac-[Sar][Sar]A[dD]DVTCP[1Nal]GPFWCPVNRPGC
modifications: linker 8-15-22 via TBMB
B19: Compound 131 (peptide)
peptide: [Sar][Sar]ACP[1Nal]GPFWCP[Tle]NR[Aib]GC
modifications: linker 4-11-18 via TBMB
B20: Compound 69 (peptide)
peptide: ACPWGPFWCPVNRPGCA
modifications: linker 2-9-16 via TBMB
B21: Compound 96 (peptide)
peptide: [Sar][Sar]ACPWGPF[1Nal]CPVNRPGC
modifications: linker 4-11-18 via TBMB
B22: Compound 132 (peptide)
peptide: [Sar][Sar]ACP[1Nal]GPFWCP[Tle]NRP[dA]C
modifications: linker 4-11-18 via TBMB
B23: Compound 53 (peptide)
peptide: AGEMACPWGPFWCPVNRPGCA
modifications: linker 6-13-20 via TBMB
B24: Compound 271 (peptide)
peptide: [βAla][Sar][Sar][Sar][Sar][Sar][Sar][Sar][Sar][Sar][Sar]H[dD]VPCPWG[Aib]FWCP[Tle]N[hArg]P[dD]C
modifications: linker 16-23-30 via TBMB
B25: Compound 120 (peptide)
peptide: [Sar][Sar]ACP[1Nal]GPF[1Nal]CPVNRPGC
modifications: linker 4-11-18 via TBMB
B26: Compound 270 (peptide)
peptide: Ac-[Sar][Sar]H[dD]VPCPWG[Aib]FWCP[Tle]NR[Aib]GC
modifications: linker 7-14-21 via TBMB
B27: Compound 115 (peptide)
peptide: [Sar][Sar]ACP[1Nal]GPFWCPV[dA]RPGC
modifications: linker 4-11-18 via TBMB
B28: Compound 59 (peptide)
peptide: AHDVPCPWGPFWCPVNRPGCA
modifications: linker 6-13-20 via TBMB
B29: Compound 110 (peptide)
peptide: [Sar][Sar]ACPWGPFWCPVNR[Aib]GC
modifications: linker 4-11-18 via TBMB
B30: Compound 129 (peptide)
peptide: [Sar][Sar]ACP[1Nal]GPFWCP[Tle][dA]RPGC
modifications: linker 4-11-18 via TBMB
B31: Compound 34 (peptide)
peptide: ACRVSPEYCPFGPVWCAGAAA
modifications: linker 2-9-16 via TBMB
B32: Compound 24 (peptide)
peptide: ACMNDWLCSLGWTCA
modifications: linker 2-8-14 via TBMB
B33: Compound 30 (peptide)
peptide: ACMNDWLCQLGWTCA
modifications: linker 2-8-14 via TBMB
B34: Compound 91 (peptide)
peptide: [Sar][Sar]ACPWGPYWCPVNRPGC
modifications: linker 4-11-18 via TBMB
B35: Compound 105 (peptide)
peptide: [Sar][Sar]ACPWGPFWCPVNR[dA]GC
modifications: linker 4-11-18 via TBMB
B36: Compound 46 (peptide)
peptide: ACPWGPMWCPVNRPGCA
modifications: linker 2-9-16 via TBMB
B37: Compound 42 (peptide)
peptide: ACPWGPAWCPVRDTNCA
modifications: linker 2-9-16 via TBMB
B38: Compound 33 (peptide)
peptide: ACRVSPEYCPFGPVWCA
modifications: linker 2-9-16 via TBMB
B39: Compound 38 (peptide)
peptide: ACRVSPEYCPFGPYWCA
modifications: linker 2-9-16 via TBMB
B40: Compound 37 (peptide)
peptide: ACRVSPEYCPFGPEWCA
modifications: linker 2-9-16 via TBMB
B41: Compound 36 (peptide)
peptide: ACRVSPEYCPFGPSWCA
modifications: linker 2-9-16 via TBMB
B42: Compound 62 (peptide)
peptide: ARDDPCPWGPFWCPVNRPGCA
modifications: linker 6-13-20 via TBMB

Numbered stars: 1 amine (or outer) side, 2 acyl side, 3 side chain; on linkers, the order of the positions; unused ones are H or OH. Bridge positions count the residues as written; N and C are the ends. Square brackets hold non-standard residues; d marks the D form. Ends that are not written are not given here. 1Nal = N[C@@H](Cc1cccc2ccccc12)C(=O)O; TBMB = c1c(C[*:1])cc(C[*:3])cc1C[*:2]; hArg = N=C(N)NCCCC[C@H](N)C(=O)O; Tle = CC(C)(C)[C@H](N)C(=O)O; Aib = CC(C)(N)C(=O)O; βAla = NCCC(=O)O; Sar = CNCC(=O)O

The target in the first assay is T1, Human EphA2 (Ecto) (Human, UniProt P29317 24-537).
T1 construct: extracellular domain
T1 sequence (P29317 24-537): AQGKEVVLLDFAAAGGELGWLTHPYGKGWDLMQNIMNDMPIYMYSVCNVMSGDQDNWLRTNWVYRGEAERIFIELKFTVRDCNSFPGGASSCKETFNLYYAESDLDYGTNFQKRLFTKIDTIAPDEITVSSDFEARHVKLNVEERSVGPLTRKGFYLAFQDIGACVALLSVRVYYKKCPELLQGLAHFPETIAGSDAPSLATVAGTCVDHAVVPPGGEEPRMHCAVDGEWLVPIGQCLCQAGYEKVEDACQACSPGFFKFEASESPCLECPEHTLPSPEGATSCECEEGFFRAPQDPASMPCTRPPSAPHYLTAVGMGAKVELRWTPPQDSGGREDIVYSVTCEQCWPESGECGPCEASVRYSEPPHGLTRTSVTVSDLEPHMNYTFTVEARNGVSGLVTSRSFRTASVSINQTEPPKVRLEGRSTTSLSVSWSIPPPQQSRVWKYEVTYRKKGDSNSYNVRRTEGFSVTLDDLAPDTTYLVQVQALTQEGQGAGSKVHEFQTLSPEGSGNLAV
Description: FP competition; competitor Compound 18. Here is the method:
(§1) Peptides without a fluorescent tag were tested in competition with a peptide with a fluorescent tag and a known Kd (Table 2). Peptides were diluted to an appropriate concentration in assay buffer as described in the direct binding assay with a maximum of 5% DMSO, then serially diluted 1 in 2. Five μL of diluted peptide was added to the plate followed by 10 μL of human or mouse EphA2 (Table 1) at a fixed concentration which was dependent on the fluorescent peptide used (Table 2), then 10 μL fluorescent peptide added. Measurements were conducted as for the direct binding assay, however the gain was determined prior to the first measurement.
For orientation: Ki means a measure of affinity in units of concentration, obtained from inhibition or displacement. B1: the inhibition constant (Ki) was determined as 3.65 nM. The same measure, in the same setting: next, B2: 3.8 nM.

Turning to B3, the Ki worked out at 9.55 nM.

For the molecule B4, the Ki worked out at 15 nM.

Take B5: the Ki was 6.4 nM.

Turning to B6, the Ki is 40 nM. On the same count and under the same terms, next, B7: 3.99 nM; B8: 0.28 nM.

For the molecule B9, the Ki amounted to 63 nM. Same read-out and setting: next, B10: 2.95 nM; B11: 10 nM; B12: 15 nM. Still for that read-out and setting: then B13, with 199 nM; and B14, with 124 nM. The same measure, in the same setting: next, B15: 293 nM; B16: 108 nM.

As to B17, the Ki came out at 53 nM. Still for that read-out and setting: then B18, with 0.87 nM; and B19, with 11 nM. Same read-out and setting: then B20, with 107 nM. The same measure, in the same setting: then B21, with 31.3 nM; and B22, with 7.7 nM. For B23, the inhibitory constant (Ki) amounted to 12.3 nM.

On to B24, for which the Ki is 3.66 nM. Same read-out and setting: next, B25: 1.4 nM; B26: 1.52 nM; B27: 12.5 nM. On the same count and under the same terms, then B28, with 0.54 nM.

As to B29, the inhibition constant (Ki) came out at 75 nM. The same measure, in the same setting: then B30, with 23 nM.

In another assay the target is T1, Human EphA2 (Ecto). In words: FP competition; competitor Compound 66. Here is the method:
as §1
As to B31, the Ki is 77.4 nM. With B1, the Ki was 2 nM.

In the case of B3, the Ki amounted to 8 nM. Still for that read-out and setting: next, B4: 19 nM; B5: 0.61 nM; B32: 82.3 nM. Still for that read-out and setting: next, B33: 56 nM; B6: 33 nM. Still for that read-out and setting: next, B9: 46 nM; B10: 3.2 nM; B11: 6.6 nM. For B12, the Ki amounted to 16 nM. The same measure, in the same setting: next, B13: 288 nM; B34: 138 nM; B14: 194 nM. On the same count and under the same terms, next, B15: 265 nM; B16: 238 nM. With B17, the Ki is 75 nM. The same measure, in the same setting: next, B35: 471 nM; B19: 6.8 nM. Still for that read-out and setting: then B36, with 95.8 nM; and B20, with 70.1 nM. On the same count and under the same terms, then B21, with 68.1 nM. As to B37, the Ki came out at 316 nM. Turning to B22, the Ki was found to be 8.7 nM.

With B25, the Ki was determined as 0.98 nM. Still for that read-out and setting: next, B38: 78.5 nM. Still for that read-out and setting: next, B39: 26.5 nM; B40: 61.2 nM. Still for that read-out and setting: next, B41: 40.5 nM.

For B27, the Ki was 1.64 nM.

Regarding B42, the Ki came out at 28 nM.

As to B29, the Ki turned out to be 140 nM.

Take B30: the Ki came out at 15 nM.
